Results from patent US11278600B2, “Human alpha-galactosidase variants” (Codexis, Inc., priority 2014, dated 2022).

Columns and labels:
Format in all cases: biochemical
[1] = HTP-analysis of yeast culture supernatants, no challenge (MUGal hydrolysis); conditions: activity of the variant/activity of WT GLA (SEQ ID NO: 5), yeast supernatant
In short: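 GLA variants expressed in yeast INVSc1, secreted into SD-Ura broth over 66-84 h at 30° C; clarified supernatants tested without challenge. Supernatant mixed with McIlvaine buffer pH 4.8 and 2 mM MUGal (citrate/KCl, pH 4.6), 37° C for 30-180 min, carbonate-quenched, fluorescence Ex 355/Em 448 nm.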

[2] = HTP-analysis of supernatants pretreated with base (MUGal hydrolysis); conditions: challenge at pH 7.1; activity of the variant/activity of WT GLA (SEQ ID NO: 5); yeast supernatant
In short: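 Supernatants from INVSc1 yeast expressing GLA variants (SD-Ura, 66-84 h, 30° C) were mixed with McIlvaine buffer pH 7.0-8.2 or 200 mM sodium bicarbonate pH 9.1-9.7 and held 1-18 h at 37° C. Residual activity was then measured on MUGal at pH 4.8/4.3, 37° C, 30-180 min, by fluorescence (Ex 355/Em 448 nm).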

[3] = HTP-analysis of supernatants pretreated with acid (MUGal hydrolysis); conditions: challenge at pH 4.2; activity of the variant/activity of WT GLA (SEQ ID NO: 5); yeast supernatant
In short: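 MUGal hydrolysis was tracked by fluorescence (Ex 355 nm, Em 448 nm) after a 30-180 min reaction at 37° C. in pH 4.8 McIlvaine/citrate buffer, stopped with 1 M sodium carbonate. Beforehand, yeast (INVSc1) culture supernatants carrying GLA variants were held 1-3 h at 37° C. in acidic McIlvaine buffer, pH 3.3-4.3.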

Molecule | Relative Activity of GLA Variants After No Challenge (NC) [1] | Relative Activity of GLA Variants After Challenge at pH 7.1 [2] | Relative Activity of GLA Variants After Challenge at pH 4.2 [3]
82 (protein, Synthetic Polypeptide sequence of Variant No. 82 of mature Human GLA) LDNGLARTPTMGWLHWERFMCNLDCQEEPDSCISEDLFMEMAELMVSEGWKDAGYEYLCIDDCWMAPQRDSEGRLQADPQRFPHGIRQLANYVHSKGLKLGIYADVGNKTCAGFPGSFGYYDIDAQTFADWGVDLLKFDGCYCDSLENLADGYKHMSLALNRTGRSIVYSCEWPLYMWPFQKPNYTEIRQYCNHWRNFADIDDSWKSIKSILDWTSFNQERIVDVAGPGGWNDPDMLVIGNFGLSWNQQVTQMALWAIMAAPLFMSNDLRHISPQAKALLQDKDVIAINQDPLGKQGYQLRQGDNFEVWERPLSGLAWAVAMINRQEIGGPRSYTIAVASLGKGVACNPACFITQLLPVKRKLGFYEWTSRLRSHINPTGTVLLQLENTMQMSKDLLL | + (+ = 0.5 to 1.5 relative activity over WT GLA (SEQ ID NO: 5)) | + (+ = 0.5 to 1.5 relative activity over WT GLA (SEQ ID NO: 5)) | + (+ = 0.5 to 1.5 relative activity over WT GLA (SEQ ID NO: 5))
85 (protein, Synthetic Polypeptide sequence of Variant No. 85 of mature Human GLA) LDNGLARTPTMGWLHWERFMCNLDCQEEPDSCISEKLFMEMAELMVSEGWKDAGYEYLCIDDCWMAPQRDSEGRLQADPQRFPHGIRQLANYVHSKGLKLGIYADVGNKTCAGFPGSFGYYDIDAQTFADWGVDLLKFDGCYCDSLENLADGYKHMSLALNRTGRSIVYSCEWPLYMWPFQKPNYTEIRQYCNHWRNFADIDDSWKSIKSILDWTSFNQERIVDVAGPGGWNDPDMLVIGNFGLSWNQQVTQMALWAIMAAPLFMSNDLRHISPQAKALLQDKDVIAINQDPLGKQGYQLRQGDNFEVWERPLSGLAWAVAMINRQEIGGPRSYTIAVASLGKGVACNPACFITQLLPVKRKLGFYEWTSRLRSHINPTGTVLLQLENTMQMSKGLLL | + (+ = 0.5 to 1.5 relative activity over WT GLA (SEQ ID NO: 5)) | + (+ = 0.5 to 1.5 relative activity over WT GLA (SEQ ID NO: 5)) | + (+ = 0.5 to 1.5 relative activity over WT GLA (SEQ ID NO: 5))
83 (protein, Synthetic Polypeptide sequence of Variant No. 83 of mature Human GLA) LDNGLARTPTMGWLHWERFMCNLDCQEEPDSCISEELFMEMAELMVSEGWKDAGYEYLCIDDCWMAPQRDSEGRLQADPQRFPHGIRQLANYVHSKGLKLGIYADVGNKTCAGFPGSFGYYDIDAQTFADWGVDLLKFDGCYCDSLENLADGYKHMSLALNRTGRSIVYSCEWPLYMWPFQKPNYTEIRQYCNHWRNFADIDDSWKSIKSILDWTSFNQERIVDVAGPGGWNDPDMLVIGNFGLSWNQQVTQMALWAIMAAPLFMSNDLRHISPQAKALLQDKDVIAINQDPLGKQGYQLRQGDNFEVWERPLSGLAWAVAMINRQEIGGPRSYTIAVASLGKGVACNPACFITQLLPVKRKLGFYEWTSRLRSHINPTGTVLLQLENTMQMSKDLLL | + (+ = 0.5 to 1.5 relative activity over WT GLA (SEQ ID NO: 5)) | + (+ = 0.5 to 1.5 relative activity over WT GLA (SEQ ID NO: 5)) | ++ (++ = >1.5 to 2.5 relative activity over WT GLA (SEQ ID NO: 5))
